According to patent US20150079657, “TARGETED HISTONE ACETYLATION” (SIGMA-ALDRICH CO. LLC, published 2015):

Key:
ZF6961 (ZF(PEDF))-p300 = ZF6961 (ZF(PEDF))-p300 (Artificial Sequence); test: cell_activity; PEDF mRNA activation in HEK293, 72 h; conditions: tags: fusion to human p300 HAT domain aa 1284-1673
Description: Expression vectors encoding ZF(PEDF)-p300 or ZF(PEDF)-p65 were transfected into HEK 293 cells. Control cells were transfected with vectors encoding GFP, p65 (no ZF), or p300 (no ZF). Total RNA was isolated 72 hours later, and the levels of PEDF mRNA and cyclophilin A endogenous control mRNA were measured by RT-PCR. The PEDF/cyc ratio was used for normalizing PEDF expression.

ZF(Oct4+181)-p300 = ZF(Oct4+181)-p300 (Artificial Sequence); test: cell_activity; OCT4 mRNA activation in HEK293, 48 h; H3K18 and H3K27 acetylation also increased by ChIP (FIG. 1); conditions: tags: C-terminal fusion to human p300 HAT domain aa 1284-1673 (NM_001429)
Sequence of ZF(Oct4+181)-p300 (Artificial Sequence) (chain, as listed by the source): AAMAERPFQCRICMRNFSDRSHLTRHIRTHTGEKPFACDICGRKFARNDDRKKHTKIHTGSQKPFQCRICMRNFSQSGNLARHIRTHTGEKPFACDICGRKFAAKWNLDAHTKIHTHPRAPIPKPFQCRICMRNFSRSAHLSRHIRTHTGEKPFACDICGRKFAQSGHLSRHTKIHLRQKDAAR
Description: Expression vectors encoding ZF(Oct4+181)-p300 or one of the control fusion proteins described above were transfected into HEK 293 cells. Control cells were transfected with vectors encoding GFP, p65 (no ZF), or p300 (no ZF). After 48 hrs, the cells were harvested and total RNA was isolated. The levels of OCT4 mRNA and cyclophilin A (i.e., PPIA) endogenous control mRNA were measured by real time reverse transcriptase polymerase chain reaction (RT-PCR) (Life Technologies, Carlsbad, Calif.). The OCT4/cyc ratio was used for normalizing OCT4 expression.

Sequence of ZF6961 (ZF(PEDF))-p300 (Artificial Sequence) (chain, as listed by the source): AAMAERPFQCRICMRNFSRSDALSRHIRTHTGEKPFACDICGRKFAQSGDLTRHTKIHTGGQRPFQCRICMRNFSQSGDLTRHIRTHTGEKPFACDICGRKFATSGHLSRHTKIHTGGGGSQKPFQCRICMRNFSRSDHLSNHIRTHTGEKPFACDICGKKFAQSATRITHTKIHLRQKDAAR

Binder | activity (ZF6961 (ZF(PEDF))-p300) | activity (ZF(Oct4+181)-p300)
PEDF -92 target site (dsDNA) DNA 1: GGATGGTGGTGCAGCAGTG DNA 2: CACTGCTGCACCACCATCC | > 2.5 fold | –
OCT4 +181 target site (dsDNA) DNA 1: GGAGGGCCAGGAATCGGGC DNA 2: GCCCGATTCCTGGCCCTCC | – | > 25 fold
